Source: article PMC9335266

Target: TRIM7^B30.2 (PRY-SPRY domain of human TRIM7, residues 338-511) (human) (UniProt Q9C029)
Test: ITC

Substance: 2C peptide with F−2 substituted by an acidic residue (D−2)
- fold decrease in binding affinity against the 2C peptide: 8 to 15 fold

Substance: 2C peptide with F−2 substituted by Ala
- fold decrease in binding affinity against the 2C peptide: 8 fold

Substance: 2C peptide with F−2 replaced by a positively charged residue (R−2)
- fold decrease in binding affinity against the 2C peptide: > 50 fold

Substance: 2C peptide with F−2 replaced by polar serine (S−2)
- fold decrease in binding affinity against the 2C peptide: > 50 fold
